{"source": "patent US20230054458A1", "about": "(JIANGSU HENGRUI MEDICINE, published 2023)", "target": "human claudin18.2 (Claudin 18.2, Genbank NP_001002026) (human)", "assay": "cell-based or functional assay", "data": [{"binder": "humanized antibody h1901-11 (antibody, human IgG1, kappa, V domains shown) VH: EVQLVESGGGLVQPGGSLRLSCAASGFTFSDYGIHWVRQAPGKGLEWIAYISRGSSTIYYADTVKGRFTISRDNAKNSLYLQMTSLRAEDTAVYYCARGGYDTRNAMDYWGQGTTVTVSS VL: DIVMTQSPDSLAVSLGERATISCKSSQSLLNSGNQKNYLAWYQQKPGQPPKLLIYGASTRASGVPDRFSGSGSGTDFTLTISSLQAEDVAIYHCQNDLYYPLTFGQGTKLEIKR", "values": [{"measurement": "ADCC effect IC50, FcrR3A-V158-NFAT-RE-Jurkat reporter luminescence, NUGC4 cells with high claudin18.2 expression", "value": 0.0262, "unit": "µg/mL"}, {"measurement": "ADCC effect IC50, FcrR3A-V158-NFAT-RE-Jurkat reporter luminescence, NUGC4 cells with low claudin18.2 expression", "value": 0.0224, "unit": "µg/mL"}, {"measurement": "ADCC effect IC50, FcrR3A-V158-NFAT-RE-Jurkat reporter luminescence, NUGC4 cells with moderate claudin18.2 expression", "value": 0.0154, "unit": "µg/mL"}]}, {"binder": "IMAB-362 (positive control antibody, from WO2016166122) (antibody, human IgG1, kappa, V domains shown) VH: QVQLQQPGAELVRPGASVKLSCKASGYTFTSYWINWVKQRPGQGLEWIGNIYPSDSYTNYNQKFKDKATLTVDKSSSTAYMQLSSPTSEDSAVYYCTRSWRGNSFDYWGQGTTLTVSS VL: DIVMTQSPSSLTVTAGEKVTMSCKSSQSLLNSGNQKNYLTWYQQKPGQPPKLLIYWASTRESGVPDRFTGSGSGTDFTLTISSVQAEDLAVYYCQNDYSYPFTFGSGTKLEIKR", "values": [{"measurement": "ADCC effect IC50, FcrR3A-V158-NFAT-RE-Jurkat reporter luminescence, NUGC4 cells with high claudin18.2 expression", "value": 0.133, "unit": "µg/mL"}, {"measurement": "ADCC effect IC50, FcrR3A-V158-NFAT-RE-Jurkat reporter luminescence, NUGC4 cells with low claudin18.2 expression", "value": 0.183, "unit": "µg/mL"}, {"measurement": "ADCC effect IC50, FcrR3A-V158-NFAT-RE-Jurkat reporter luminescence, NUGC4 cells with moderate claudin18.2 expression", "value": 0.21, "unit": "µg/mL"}]}]}
